Experimental data from paper PMC9328677 (2021).
Numbering of substitutions follows the chain as printed. Names may count otherwise. Where two headings read alike, the source gives them in different places. One block for each binder: values may come before it.

Key:
Experiment in all cases: ITC
[1] = molecular target: stoichiometric mixture of full-length Drosophila melanogaster H2A-H2B and H3-H4 (octamer-mix) (Drosophila melanogaster, UniProt P84051 1-124; P02283 1-123; P02299 1-136; P84040 1-103)
[2] = molecular target: T1, Drosophila melanogaster histone H3-H4 complex, full-length (Drosophila melanogaster, UniProt P02299 1-136; P84040 1-103)
[3] = molecular target: T1, Drosophila melanogaster histone H3-H4 …; remark: listed apart in the source

B1: APLF^AD double anchor mutant Y462A/F468A (DA-34) (domain or fragment)
chain: DEDNDNVGQPNEADLNDSALDDEEEDYEPTDEDSDWEPGKEDEEKEDVEELLKEAKRFMKRK
Kd [1]: 671 nM | Kd [2]: 7630 nM

B4: APLF^AD double anchor mutant Y476A/W485A (DA-AB) (domain or fragment)
chain: B1 chain with A13Y, A19F, Y27A, W36A
Kd [1]: 317 nM | Kd [2]: 2050 nM

B5: APLF^AD F468A (protein)
chain: B1 chain with A13Y
Kd [2]: 980 nM

Other lines, results leading:

Kd [3]: 552 nM | Kd [2]: 790 nM
B2: acidic domain of Homo sapiens APLF (APLF^AD, residues 450 to 511), wild type (domain or fragment)
chain: B1 chain with A13Y, A19F

Kd [2]: 3090 nM
B3: APLF^AD mutant of Y462 tested by ITC on H3-H4 (domain or fragment)
chain: B1 chain with A19F

Kd [1]: 794 nM
B6: SUMO-APLF^AD quadruple anchor mutant Y462A/F468A/Y476A/W485A (QA) (domain or fragment)
chain: B1 chain with Y27A, W36A

Kd [1]: 90 nM
B7: truncated APLF^AD construct corresponding to residues 449 to 490 (APLF^AD-Δ) (domain or fragment)
chain: GLDEDNDNVGQPNEYDLNDSFLDDEEEDYEPTDEDSDWEPGKE

Kd [1]: 1220 nM
B8: SUMO-APLF^AD truncated QA mutant (QA-Δ, residues 449 to 490) (domain or fragment)
chain: LDEDNDNVGQPNEADLNDSALDDEEEDAEPTDEDSDAEPGKE
